Assay results published in the nanobody polyreactivity screen of Harvey et al. (2022).

Assay: yeast display, Sf9 membrane polyspecificity reagent, FACS + sequencing; frameworks hold sequencing errors
Outline: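 Nanobodies from a synthetic yeast display library (Saccharomyces cerevisiae BJ5465), induced 36–48 hours with galactose, were stained 1 hour at 4 °C with 10% biotinylated, detergent-solubilized Sf9 membrane reagent, enriched on streptavidin microbeads, then FACS-sorted. Anti-HA (expression) and streptavidin (reagent binding) fluorescence set low and high (top ~1%) gates. Polyreactivity labels come from the gate of origin. Genes were colony-PCR amplified, MiSeq 2 × 250 sequenced and filtered by CDR length.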

Sequence | polyreactivity (PSR sort gate)
QVHLVESGGGLVQAGGSHRLSCAASGSIFRYNAMGWYRQAPGKEREFVAIISYSGVRTYYADSVKGRFTISRDNAKNTVYLEMNSLKPEDTAVYYCAADFKQKGHRTRTTYWGQGTQVTVSS | high polyreactivity
QVHLVESGGGLVQAGGSHRLSCAASGSIFWYNAMGWYRQAPGKERELVAGITYGGDTNYADSVKGRFTISRDNAKNTVYLQMNSLKPEDTAVYYCAKRWYGGRRYDYWGQGTQVTVSS | low polyreactivity
QVHLVESGGGLVQAGGSLHLSCAPSGRTFGYYAKGGYRQAPGKEREFVAAISHSAGSTSYADSVKGRFTLSRDNAKNTVYLQMNSLKPEDTAVYYCATPSQLHPYEYWGQGSQVTVSS | low polyreactivity
QVHLVESGGGLVQAGGSLLLSCAASGFTFTAYAMGWYRQAPGKERELVAAISYRGGRTNYAYSVKGRFTISRDNAKNTVYLQMNSLKPEDTAVYYCASRQGISTREMDYWGQGTQVTVSS | high polyreactivity
QVHLVESGGGLVQAGGSLLLSCGASGITFVTYAMGWYRQAPGKEREFVPAISRSGGRTYYADSVKGRFTISRDNAKNTVYLQMNSLKPEDTAVYYCASDVFLLYSFTIYDYWGQGTQVTVSS | high polyreactivity
QVHLVESGGGLVQAGGSLRISCAASGFTFRYNAMGWNRQAPGKERELVAAISRGTITNYADSVKGRFTISRDNAKNTVYLQMNSLKPEDTAVYYCAARYPGHFRFYYWGQGTQVTVSS | high polyreactivity
QVHLVESGGGLVQAGGSLRISCAASGFTFVWYAMGWYRPPPGKERELVAALSRRGTRTYYADSVKGRFSISRDNAKNTVYLQMNSLKPEDTAVYYSAASNGYEAVTYDYWGQGTQVTVSS | high polyreactivity
QVHLVESGGGLVQAGGSLRISCAASGLIFPDYTMGWYRPAPGKESELVAVITDGDSTYYADSVKGRFTISRDNAKNTVYLQMNSLKPEDTAVYYCASELDGSKYTLDYWGQGTQVTVSS | low polyreactivity
QVHLVESGGGLVQAGGSLRISCAAYGRTFRYYAMGCYRQAPAKDRELVAGISSSGDRTYFADSVKGRFTISRDTAKNTVYLQMNSLKPEDTAVYYCAADRGARGDYYWGQGTQVTVSS | high polyreactivity
QVHLVESGGGLVQAGGSLRISGAASGSTFGTYAMGWYRQAPGKERELVAAITSGGSTDYADSVKGRFTISRDNAKNTVYLQMNSLKPEDTAVYYCTARGYGYLGRKGGYSYGYYYWGQGNQVTVSS | low polyreactivity
QVHLVESGGGLVQAGGSLRLICAASGFIFRQYAMGWYRQAPGKERELVAAISYRGASTYYADSVKGRFTISRDNAKNTVYLQMNSLKPEDTAVYYCADRYYNPWARVSGYDYWGQGTQVTVSS | high polyreactivity
QVHLVESGGGLVQAGGSLRLRCAASGIIFRRYAMGWYRQAPGKESEFVAAIRYTGGGTYYADSVKGRFTISRDNAKNTVYLQMNSLQPEDTAVYYCAASSRVSKSHLYGYWGQGTQVTVSS | high polyreactivity
QVHLVESGGGLVQAGGSLRLRCAASGSIFLLYAMGWYRQPPGKGRELVAAITYSGGRTYADSVKGRFTISRDNAKNTGYLQMISLKPEDTAVNYCATDAPAPKYDYWGQGTQVTVSS | low polyreactivity
QVHLVESGGGLVQAGGSLRLRCDASGSIFKPYARGWYRQAPGKERELVAGITAGGASTYYADSVKGRFTISRDNAKNTVYLQMNSLKPEDTAVYYCAAGDYQSGVRYDYWGQGTQVTVSS | low polyreactivity
QVHLVESGGGLVQAGGSLRLSCAAAGSTSARYAMGWYRQPPGKERELVATITRSGTTKYADSVKGRFTISRDNAKNTVYLQMNSLKPEDTAVYYCNTDTYFPLYDYWGQGTQVTVSS | low polyreactivity
QVHLVESGGGLVQAGGSLRLSCAACGLTFTHYTMGWYRQAPGKERELVAAITTSGGSTYYADSLKGRFTISRDNAKKTVYLQLNSLKPEDTPVYYCAADLGGNSRLDYWGQGTQETVSS | high polyreactivity
QVHLVESGGGLVQAGGSLRLSCAACGRTFRSNALGWYSQAPGTEREFVAALSGRGGITYFADSVTGRFSISRDNAKNTVYLQMNSLKPEDTAVDYCNRDVKFHDYVYVTGINSPGYNYWGQGTQVTVSS | low polyreactivity
QVHLVESGGGLVQAGGSLRLSCAASAFTFSQYAMGWYRQAPGKERELVAVISINGGSTYYADSVKGRFTISRDNAKNTVYLQMNSLKPEDTAVYYCAADDTDSEYYGYDYWGQGTQVTVSS | low polyreactivity
QVHLVESGGGLVQAGGSLRLSCAASGFIFAGYTMGWYRQAPRKERELVAAINSGGSTKYADSVKGRFTISRDNAKNTVYLQMNSLKPEDTAVSYCNADYGWYFLFDYWGQGTQVTVSS | low polyreactivity
QVHLVESGGGLVQAGGSLRLSCAASGFIFDYYAMGWYRQAPGKERELVAAITGSGGGTYYADSVKGRFTISRDNAKNTVYLQMNSLKPEDSAVYYCNAYVPYPYSSEVQDYDYWGQCTQVTVSS | high polyreactivity
QVHLVESGGGLVQAGGSLRLSCAASGFIFGRNAMGWYRQAPGKEREFVAALTRIGGNTYYADSVKGRFTISRDNAKNTVYLQMNSLKPEDTAVYYCAARLSYFHAYGFYWGQGTQVTVSS | high polyreactivity

Sequence | polyreactivity (PSR sort gate)
QVHLVESGGGLVQAGGSLRLSCAASGFIFLPYAMGSYRQAPGKERELVAAITRGGRTYYADSVKGRFTISRDNAKNTVYLQMNSLKPEDTAVYYCAAVVWAPFYEFYYWGQGTQVTVSS | low polyreactivity
QVHLVESGGGLVQAGGSLRLSCAASGFIFNVYAMGWYRQAPGKERELVAAISFSGTSTYYADSVKGRFTISRDNAKNTVYLQMNSLKPEDTAVYYCAARYWSRDQWPRSLYYWGQGTQVTVSS | high polyreactivity
QVHLVESGGGLVQAGGSLRLSCAASGFIFPAYVMGWYRQAPGKERELVAVIGSGGSTSYADSVKGRFTISRDNAKNTVYLQMNSLKPEDTAVYYCTADPTWFGYVYYQYDYWGQGTKVTVSS | low polyreactivity
QVHLVESGGGLVQAGGSLRLSCAASGFIFRRYAMGWYRQAPGKERELVAAITSSGTSTYYADSVKGRFTISRDNAKNTVYLQMNSLKPEDAAVYFCNRDNYVRWIREDFDYWGQGTQVTVSS | high polyreactivity
QVHLVESGGGLVQAGGSLRLSCAASGFIYWAYAMGWYRQAPGKERELVAGITRSGGSTYYADSVKGRFTISRDNAKNTVYLQMNSLKPEDTAVYYCAADFRYNGGYWGQGTQVTVSS | high polyreactivity
QVHLVESGGGLVQAGGSLRLSCAASGFTCGYNAMGWYRQAPGKETELVATICGGGRTKYADSVKGRFTLSRDNAKNTVYLQMNSLKPEDTAVYYCNVVQTYYRGSYIYIKYGYWGQGTQVTVSS | high polyreactivity
QVHLVESGGGLVQAGGSLRLSCAASGFTFDQNAMGWYRQAPGKERELVAAISIGGSTYYADSVKGRFTISRDNAKNTVYLQMNSLKPEDTAVYYCATRNIYFSSVDYWGQGTQVTVSS | high polyreactivity
QVHLVESGGGLVQAGGSLRLSCAASGFTFPLYARGLYRQAPGKERELVAVINSDGGRTYYADSVKGRFTISRDNAKYTVYLQMNSLKPEDTAVYYCATRATWYYWGQGTQVTVSS | high polyreactivity
QVHLVESGGGLVQAGGSLRLSCAASGFTFRFYAMGCYIQAPGKERELVAAISSTGIRTYYADSLKGRFTISRDNSKNTDYLQMNSLKPEDTAVYYCAKLHRDSILDYWGQGTQVTVSS | high polyreactivity
QVHLVESGGGLVQAGGSLRLSCAASGFTFRYYTMGWYRQAPGKERELVARITWSGGITYYADSVKGRFTISRDNAKNTVYLQMNSLKPEDTAVYYCNAERRWAAYDYWGQGTQVTVSS | high polyreactivity
QVHLVESGGGLVQAGGSLRLSCAASGFTFVSYAMGWYRQAPGKESELVAAISWSSARTYYADSVKGRFTISRHNAKNTVYLQRNSLKPEDTAVYYCNAVRGFSSSRGGYNYWGQGTQVTVSS | high polyreactivity
QVHLVESGGGLVQAGGSLRLSCAASGFTFVYYTMGWYRQAPGKERELVAAITYGGNTYYADSVKGRFTISRDNAKNTVYLQMNSLKPEDTAVYYCAARYISSYDWGQGTEVTVSS | high polyreactivity
QVHLVESGGGLVQAGGSLRLSCAASGFTFYYYAMGWYRQAPGKEREFVAAITRGGGSTYYADSVKGRFTISRDKAKNSVYLQMNSLKPEDTAVYYCAADPQSTIRDYWGQGTQVTVSS | high polyreactivity
QVHLVESGGGLVQAGGSLRLSCAASGFTLRHNTIGGYRQSPGKERELVAAISIGGRTYYADSVKARFTISRDNAKNTGYLQMNSLKPEDTAVYYCGKLDRGQSPRYDFWGQGTQVSVSS | high polyreactivity
QVHLVESGGGLVQAGGSLRLSCAASGFTYYKYAMGWYRQAPGKEREFVDAITPSGGSTYYADSVKGRFTISRDNAKNTVYLQMNSLKPEDTAVYYCAAYYGTSRWAKMCYWGQGTQVTVSS | high polyreactivity
QVHLVESGGGLVQAGGSLRLSCAASGGIFLDNAMGWYRQAPGKERELVASIRTRTYYADSVKGRFTISRDNAKNTVYLQMNSLKPEDTAVYYCAAAHRRWDGDYNYWGQGTQVTVSS | high polyreactivity
QVHLVESGGGLVQAGGSLRLSCAASGGIFLENAMGWYRQAPGKERELVAAISYNGGRTYYADSVKGRFTISRDNAKNTVYLQMNSLKPEDTAVYYCNAASPYYDSWGQGTQVTVSS | high polyreactivity
QVHLVESGGGLVQAGGSLRLSCAASGGTFGYYAMGWYRPAPGKERELVAAINARGDSTYYADSVKGRFTISRDNAKNTVYFLMNSLKPEDTAVYYCNTGIALFGYKYHYWGQGTQVTVSS | low polyreactivity
QVHLVESGGGLVQAGGSLRLSCAASGGTFQDYTMGWYRQAPGKEREFVAAISLSGTRTYYADSVKGRFTISRDNAKNTVYFQMNSLKPEDSAVYYCSTSGPQYYSRNFDYWGQATQVTVSS | low polyreactivity
QVHLVESGGGLVQAGGSLRLSCAASGGTFYYNTMGWYRQAPGKERELVAAITSGTSTNYADSVKGRFTISRDNAKNTVYLQMNSLIPEDTAGYYCAADPDADDPRRGYDYWGQGTQVTVSS | low polyreactivity
